Ends that are not written are not given here. Peptide text beside a SMILES is read from it. * marks the point of attachment. X1 = CCN1C(=CC=CC=CC2=[N+](CCCCCC(=O)NCCN3C(=O)CC(*)C3=O)c3ccc(S(=O)(=O)[O-])cc3C2(C)C)C(C)(C)c2cc(S(=O)(=O)O)ccc21

The labels stand for the following.
B2: extended Mus musculus nNOS-PDZ (residues 12-134) (domain or fragment, UniProt Q9Z0J4 12-134, looked up)
chain: QPNVISVRLFKRKVGGLGFLVKERVSKPPVIISDLIRGGAAEQSGLIQAGDIILAVNDRPLVDLSYDSALEVLRGIASETHVVLILRGPEGFTTHLETTFTGDGTPKTIRVTQPLGTPTKAVD
notes: neuronal nitric oxide synthase (nNOS), Mus musculus, extended PDZ domain, residues 12-134, Uniprot Q9JJ30; Construct of the ITC and NMR experiments; 15N-labelled in some NMR samples; also called extended nNOS-PDZ; source: sub-cloned into pETM11, expressed and purified following a similar protocol to that of PSD-95-PDZ2
B3: PSD-95-PDZ2 (157-249, human) (domain or fragment, UniProt P78352 157-249, looked up)
chain: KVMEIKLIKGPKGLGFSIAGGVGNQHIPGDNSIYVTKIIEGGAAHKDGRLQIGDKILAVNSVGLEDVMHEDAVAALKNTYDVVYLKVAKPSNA
notes: PSD-95, human, PDZ2 domain, residues 157-249; Construct of the ITC and NMR experiments; 15N-labelled in some NMR samples

Test [1] addresses PDZ1-2 (61-249) from PSD-95 (human). The test can be described thus: fluorescence polarisation; inhibition of TAMRA-Cnskr2 (5 nM)/PDZ2 (1.5 μM) or PDZ1-2 (1 μM) by increasing unlabelled nNOS-PDZ or GluN2B-C5; 1 x TBS pH 7.4; Ki calculated from IC50.
In test [2] the target is PDZ2 (155-249) from PSD-95 (human). The description is as above.
Test [3] addresses Cy5-Nav1.4. Nature of the test: fluorescence polarisation; saturation binding: increasing PDZ domain protein (typically 0-150 μM) added to a fixed low concentration of TAMRA- or Cy5-labelled probe (5 or 50 nM); 1 x TBS (150 mM NaCl, 10 mM Tris, pH 7.4), 10-15 min, room temperature. (In general: Fluorescence polarisation rises when a labelled molecule tumbles more slowly, as on binding a larger partner.)

The target of test [4] is TAMRA-Cnskr2. Described as above.
Test [5] addresses TAMRA-labelled nNOS-PDZ (V36C) (human) (UniProt P29475). Described as above.
Test [6] addresses T1, nNOS-PDZ (Homo sapiens, UniProt P29475).
T1 construct: nNOS-PDZ (12–130, human); made in house; host or cells: E. coli
Nature of the test: FP saturation and inhibition assay, Cy5-Nav1.4 probe / nNOS-PDZ. The class given is binding. Here is the method: Fluorescent probes were made by attaching fluorophores (Cy5) to C-terminal 10- or 11-mer (C10 or C11) peptide ligands representing canonical and natural occurring protein partners (Supplementary Table S1). […] (Fig. 2).
(b) Cy5-GluN2B as probe (50 nM), [PDZ2] = 6 μM. (c) Cy5-CRIPT as probe (50 nM), [PDZ3] = 5 μM. […] Error bars indicate SEM based on three individual measurements.
nNOS-PDZ (12–130, human) and α-Syntrophin-PDZ (82–200, human), both comprising an N-terminal His-tag/FXa-site sequence ([…]), were likewise expressed in E. coli and purified by HisTrap chromatography followed by gel-filtration as described in details previously. To make the TAMRA-labelled nNOS-PDZ, mutant nNOS-PDZ (V36C) protein was generated by standard site-directed mutagenesis and characterized as described previously. Here, dithiothreitol was added to the pooled protein sample after HisTrap purification to a final concentration of 10 mM to eliminate unwanted disulfide bonds, and a final gel-filtration (50 mM NaPi buffer pH 7.5) was performed to remove impurities and salts. Next, purified nNOS-PDZ (V36C) was desalted by dialysis into 50 mM (NH4)2CO3 buffer (SnakeSkin dialysis tubing 3.5 MWCO, Pierce, Rockford, IL, USA) and subsequently lyophilized. nNOS-PDZ (V36C) was redissolved in 500 μL buffer (6 M GnHCl, 200 mM NaPi) and solid TAMRA-maleimide (5-tetramethylrhodamine-C2-maleimide; Anaspec, Fremont, CA, USA) was added in excess (cf. ESI-LC-MS). The coupling reaction was incubated at room temperature for 16 hours and TAMRA-labelled nNOS-PDZ was purified by preparative HPLC, and refolded in assay buffer. Functional validation was performed by FP[19], and all final proteins were characterized for purity and identity by SDS-PAGE and ESI-LC-MS.
Incubation time was 10–15 minutes (room temperature), and the assay was performed in a 1 × TBS buffer (150 mM NaCl, 10 mM Tris, pH 7.4) using black flat-bottom 384-well plates (Corning Life Sciences, NY) and a Safire2 plate-reader (Tecan, Männedorf, Switzerland). G-factor was adjusted so that probe alone (i.e. without protein interacting-partner) would give an FP value of 20 mP. This background value was subsequently subtracted from the raw data before plotting and analyzing the data. TAMRA- and Cy5-probes were measured at excitation/emission values of 530/585 nm (bandwidth = 20 nm) and 635/670 nm (bandwidth = 15 nm), respectively. […]
FP values were fitted to the general equation: Y = Bottom + (Top–Bottom)/[1 + (10^(X-logIC50)*HillSlope)], where X is the logarithmic value of peptide/compound concentration, and Y is the experimental FP values. Competitive inhibition constants, Ki values, were calculated from the IC50 values to quantify affinities between test substance and protein[42]. […]

For test [7], the target named is T2, PSD-95-PDZ2 (Homo sapiens, UniProt P78352). The test can be described thus: FP saturation and inhibition, TAMRA-Cnskr2 / PSD-95-PDZ2. The class given is binding. The arrangement: PDZ2 (155-249); made in house; host or cells: E. coli BL21-DE3 pLysS. The note with it: TAMRA-Cnskr2 5 nM, PDZ2 […]. The text has this:
(§1) First we tested a series of 23 fluorescent-labelled C-terminal peptide ligands (Supplementary Table S1) derived from PDZ-interacting proteins in order to find a probe with good activity towards the PSD-95 PDZ domains and no or little activity against nNOS-PDZ (Supplementary Fig. S1). The Cnskr2 probe fulfilled these selectivity criteria and was used to generate saturation curves with PDZ2 and PDZ1-2 of PSD-95 (Fig. 4a). […] Next, fixed concentrations of TAMRA-Cnskr2, PSD-95-PDZ2/1-2, and nNOS-PDZ were applied, corresponding to the conditions at IC50 of the nNOS-PDZ inhibition curve (Fig. 4b) where sensitivity of the assay is greatest. […] Here, we used the Sapk3-peptide as it has the desired high affinity to α1-Syntrophin-PDZ and low affinity to nNOS-PDZ (Supplementary Fig. S1).
(§2) The minor increases in mP at high concentrations, 260-2900 μM, were due to fluorescence artefacts.
(§3) Incubation time was 10–15 minutes (room temperature), and the assay was performed in a 1 × TBS buffer (150 mM NaCl, 10 mM Tris, pH 7.4) using black flat-bottom 384-well plates (Corning Life Sciences, NY) and a Safire2 plate-reader (Tecan, Männedorf, Switzerland). […] TAMRA- and Cy5-probes were measured at excitation/emission values of 530/585 nm (bandwidth = 20 nm) and 635/670 nm (bandwidth = 15 nm), respectively. […]

The target of test [8] is T3, PSD-95-PDZ1-2 (Homo sapiens, UniProt P78352).
T3 construct: PDZ1-2 (61-249); made in house; host or cells: E. coli BL21-DE3 pLysS
Nature of the test: FP saturation and inhibition, TAMRA-Cnskr2 / PSD-95-PDZ1-2. The test is classed as binding. The settings on record: TAMRA-Cnskr2 5 nM, PDZ1-2 1 μM.
Description: as §1, §2, §3

Test [9] has as its target T2, PSD-95-PDZ2. The test can be described thus: ITC titration into PSD-95-PDZ2. The class given is binding. The arrangement: PSD-95-PDZ2 (157–249, human); made in house. From the text: Unlike the FP experiments above, which rely on inhibition of interaction partners, the ITC method is a direct measure of binding, regardless of where it takes place on the protein.
Figure 5 ITC curves. Plots showing titrations into PDZ domains fitted to a one-site model.
For isothermal titration calorimetry (ITC) and NMR, PSD-95-PDZ2 (157–249, human) was expressed and purified as described previously. The sequence for the extended Mus musculus nNOS-PDZ (residues 12–134, Uniprot Q9JJ30) was sub-cloned into a pETM11 vector using cloning sites Nco1 and Kpn1, and the protein was expressed and purified following a similar protocol to that used for the production of PSD-95-PDZ2.
All ITC experiments were carried out at 25 °C on an iTC200 Microcalorimeter (GE Healthcare) with a 200 μL cell capacity and 40 μL syringe volume. The buffer used for all solutions was 20 mM phosphate buffer at pH 6.3; each experiment consisted of an initial injection of 0.5 μL, followed by fifteen 2.39 μL injections before a final injection of 1.89 μL. […] In both cases no heat exchange was detected, confirming that there was appropriate match of buffer conditions with no indication of dilution effects. […] For the nNOS-PDZ/PSD-95-PDZ2 interaction, 100 μM PDZ2 in the cell was titrated with 750 μM nNOS-PDZ. […] All data was analysed using the Origin®7 software programme.
(In general: ITC needs no label: the signal is the heat of the interaction.)

The target in test [10] is B3. Nature of the test: ITC; 25 °C, 20 mM phosphate buffer pH 6.3; 100 μM PDZ2 in the cell titrated with 750 μM nNOS-PDZ; one-site model. The settings on record: both partners purified.
The target in test [11] is PDZ2 (155-249) from PSD-95 (human). Nature of the test: fluorescence polarisation; 'direct' FP inhibition assay: TAMRA-nNOS (5 nM) with fixed PDZ1 (7.5 μM), PDZ2 (2.5 μM) or PDZ1-2 (0.3 μM); increasing control compound; 1 x TBS pH 7.4.
Test [12] concerns the target PDZ1 (61-151) from PSD-95 (human). The test is described as above.
Test [13] addresses B2. Nature of the test: ITC; 25 °C, 20 mM phosphate buffer pH 6.3; 100 μM PDZ2 in the cell titrated with 750 μM nNOS-PDZ; one-site model. The settings on record: both partners purified.
The mark [14] stands for this setting: ITC, nNOS-PDZ titrated into PSD-95-PDZ2.

By Ki is commonly meant a measure of affinity in units of concentration, obtained from inhibition or displacement. As usually defined, the Kd is the concentration at which binding is half-saturated. Lower therefore signals higher affinity. For the molecule “nNOS-PDZ (12-130, human) (from UniProt P29475 12-130) (domain or fragment)”, the results for the Ki in [1] and in test [2] were 810 nM and 88 nM, respectively. Moreover, the values for the Kd in test [3] and in [4] were 20 µM and more than 190000 nM, respectively.
In the case of “PDZ2 (155-249) from PSD-95 (domain or fragment)”, the Kd in test [4] is 380 nM; in [5], 1100 nM.
Consider GluN2B-C5 (peptide), for which the values for the Ki in test [1] and in test [2] were 4800 nM and 1600 nM, respectively.
The molecule “PDZ1 (61-151) from PSD-95 (domain or fragment)” registered a Kd in [5] of 2400 nM. That is a single-digit micromolar value.
Turning to `CCN1C(=CC=CC=CC2=[N+](CCCCCC(=O)NCCN3C(=O)CC(SC[C@H](N)C(=O)N[C@@H](CC(N)=O)C(=O)N[C@@H](CC(N)=O)C(=O)NCC(=O)N[C@H](C(=O)N[C@@H](CCCNC(=N)N)C(=O)N4CCC[C@H]4C(=O)NCC(=O)N[C@H](C(=O)N[C@@H](CCCCN)C(=O)N[C@@H](CCC(=O)O)C(=O)N[C@@H](CO)C(=O)N[C@@H](CC(C)C)C(=O)N[C@H](C(=O)O)C(C)C)C(C)C)C(C)C)C3=O)c3ccc(S(=O)(=O)[O-])cc3C2(C)C)C(C)(C)c2cc(S(=O)(=O)O)ccc21` (stereo partly drawn) [Cy5-Nav1.4] (H-C(X1)NNGVRPGVKESLV-OH; N-terminus assumed), the Kd in test [6] (saturation curve, probe 50 nM) amounted to 20 ± 1 µM.
In the case of NNGVRPGVKESLV [Nav1.4-C10], the affinity in [6] (Cy5-Nav1.4 probe 50 nM / nNOS-PDZ), expressed as Ki, was 45 ± 4 µM.
With “PDZ1-2 (61-249) from PSD-95 (domain or fragment)”, the Kd amounted to 1100 nM in test [4] and 150 nM in test [5].

B1: nNOS-PDZ: recombinant extended PDZ domain of nNOS (12–130 human for FP; 12–134 Mus musculus for ITC/NMR) (protein, UniProt P29475 12-130, looked up, fragment)
chain: QPNVISVRLFKRKVGGLGFLVKERVSKPPVIISDLIRGGAAEQSGLIQAGDIILAVNGRPLVDLSYDSALEVLRGIASETHVVLILRGPEGFTTHLETTFTGDGTPKTIRVTQPLGPPT
Consider B1, for which the Ki in test [7] is 88 ± 14 nM. Also, the Ki in [8] worked out at 810 ± 23 nM. In addition, the Kd in [9] (100 μM PDZ2 in cell titrated with 750 μM nNOS-PDZ, pH 6.3, 25 °C) was approximately 670 nM. In addition, in test [9] (setting [14]), the “N (stoichiometry ratio)” value is reported as 1.0, the “T∆S” value is approximately 6.7 kcal/mol and the “∆H” value was approximately -1.7 kcal/mol.
Usually stoichiometry N stands for a count of units in the complex or per binding partner. With B2, in test [10], the dH is approximately -1.7 kcal/mol and the “stoichiometry N” value was found to be 1.
Consider {N‑cyclohexylethyl}-ETAV [N-cyclohexylethyl-ETAV], for which the Ki in test [11] was 2000 nM; in [12], 3.9 µM.
On to B3, for which the Kd in test [13] was approximately 670 nM.

The values are drawn from PMC4503980 (Scientific Reports, 2015).
